Data on one molecule can be found in patent US20180222961A1.

For the experiment, the target named is HLA-A*02:01 (human). Nature of the experiment: UV-exchange b2m ELISA; exchange-yield grade. The note with it: remark: other sources report otherwise. On the technique in general: In an ELISA, binding on a coated surface is turned into a signal by an enzyme label.

As to SVFAHPRKL […], the peptide exchange yield lay in the range of 50 to 75%.
